Positions count from the first letter of the chain named.
T1: human CD70 (cellularly expressed hCD70) (human, UniProt P32970 1-193)
T1 construct: whole, on cells; also called CHO-K1.hCD70; CHO-K1.CD70
T1 sequence (looked up): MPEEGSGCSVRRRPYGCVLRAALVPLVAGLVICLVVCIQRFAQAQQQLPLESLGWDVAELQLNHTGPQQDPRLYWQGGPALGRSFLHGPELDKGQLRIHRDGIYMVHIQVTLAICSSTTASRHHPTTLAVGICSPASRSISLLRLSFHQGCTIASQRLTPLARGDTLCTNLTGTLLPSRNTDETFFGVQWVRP

B1: hCD70.39 (antibody, part only; not given: light chain, IgG1, V domains shown, part only)
VH: QGQMQQSGAELVKPGASVKLSCKTSGFTFSSNYISWLKQKPGQSLEWIAWIYAGTGGTNYNQKFTGKAQLTVDTSSSTAYIQFSSLTTEDSAIYYCARLYGYYFDYWGQGTTLTVSS
B2: hCD70.21 (antibody, IgG1, V domains shown)
VH: QVQLQQPGAELVKPGTSVKLSCKASGYNFTSYWINWVKLRPGQGLEWIGDIYPGSGSTNYNEKFKSKATLTVDTSSSTAYMQLSSLASEDSALYYCARGHYGSSYGFDYWGQGTTLTVSS
VL: DIVLTQSPASLAVSLGQRATISCRASKSVSTSGYSYMHWYQQKPGQPPKLLIYLASNLESGVPARFSGSGSGTDFTLNIHPVEEEDAATYYCQHSRELPLTFGAGTKLELK
notes: Mouse monoclonal purified from hybridoma supernatant
B3: hCD70.23 (antibody, IgG1, V domains shown)
VH: QVQLQQSGPEVVRPGVSVKISCKGSGYTFTDYAMHWVKQSHAKSLEWIGVISTYNGNTNYNQKFKGKATMTVDKSSSTAYMELARLTSEDSAIYYCARDYLDYWGQGTTLTVSS
VL: DIVMTQSPSSLTVTAGEKVTMSCKSSQSLLNSGNQKNYLTWYQQKPGQPPKLLIYWASTRESGVPDRFTGSGSGTDFTLTISSVQAEDLAVYYCQNDYSYPFTFGSGTKLEIK
notes: as for B2
B4: hCD70.36 (antibody, IgG1, V domains shown)
VH: EVQLQQSGPELVKTGASVKISCKASGYSFTGYYMHWVKQSHGKSLEWIGYISCYNGATSYNQKFKGKATFTVDTSSSTAYMQFNSLTSEDSAVYYCARGGNWDVEYAMDYWGQGTSVTVSS
VL: B2 VL with L100F, A104S, L110I
notes: as for B2
B5: hCD70.32 (antibody, IgG1, V domains shown)
VH: QVQLQQSGDDLVKPGASVKLSCKASGYTFTSYWINWIKQRPGQGLEWIGRIAPGSGSTYYSKIFKGKATLTVDTSSSTAYIQLSSLSSEDSAVYFCSRGDYGDYWGQGTTLTVSS
VL: DIVMTQSHKFMSTSVGDRVSITCKASQDVGTAVAWYQQKPGESPKLLIYWASTRHTGVPDRLTGSGSGTDFTLTISNVHSEDLADYFCQQYSGYPLTFGDGTKLEL
notes: as for B2
B6: hCD70.34 (antibody, IgG1, V domains shown)
VH: QVQLKESGPGLVAPSQSLSITCTVSGFSLTSYGVSWVRQPPGKGLEWLGVIWGDGTTNYHSALISRLSISKDNSKSQVFLKLNSLQIDDTATYYCAKPGDYYGSSYWYFDVWGAGTTVTVSS
VL: DVVLTQTPLSLPVNIGDQASISCKSTKSLLNSDGFTYLDWYLQKPGQSPQLLIYFVSNRFSGVPDRFSGSGSGTDFTLKISRVEADDLGVYYCFQSNYLPYTFGGGTKLEIK
notes: as for B2

Assays:
[1] = biological target: T1, human CD70 (cellularly expressed hCD70); test: cell ELISA on CHO-K1.hCD70 cells, goat anti-mouse IgG-HRP
Method: Cell-based ELISA experiments using purified hCD70 antibodies were performed to determine binding activities of hCD70 to cellularly expressed hCD70. In this cell-ELISA, all incubation steps were followed by a wash step with PBST (PBS with 0.01% Tween 20). CHO-K1.hCD70 cells were seeded (40,000 cells/well) in tissue culture plates and incubated overnight at 37° C. The next day, culture medium was removed and cells were incubated for one hour with (dilutions of) purified antibodies at 37° C. Next, cells were washed with PBST and incubated for one hour at 37° C. with 1:1,000 goat-anti-mouse IgG-HRP (Southern Biotechnology, #1030-05). Subsequently, cells were washed 6 times with PBST and anti-hCD70 immunoreactivity was visualized with 100 μl TMB Stabilized Chromagen (Invitrogen, cat. no. SB02). Reactions were stopped with 100 μl 0.5 M H₂SO₄ and absorbances were read at 450 and 620 nm. […] Calculated EC₅₀, representing the concentration at which 50% of the total binding signal is observed are represented in Table 3 using 2F2 anti-hCD70 antibody (Pelicluster) as a reference.

[2] = biological target: recombinant hCD70 (CD70(h)-muCD8 fusion Protein, Ancell, cat. no. ANC-537-030) (mouse; human); test: cell-based competition ELISA: biotinylated CD70(h)-muCD8 (0.5 ug/ml) binding to CHO-K1.CD27 cells, Streptavidin-HRP
[3] = biological target: T1, human CD70 (cellularly expressed hCD70); test: cell ELISA on CHO-K1.hCD70 cells, goat anti-mouse IgG-HRP (reference antibody, Example 3)
[4] = biological target: recombinant hCD70 (CD70(h)-muCD8 fusion Protein, Ancell, cat. no. ANC-537-030) (mouse; human); test: cell-based competition ELISA: biotinylated CD70(h)-muCD8 (0.5 ug/ml) binding to CHO-K1.hCD27 cells, Streptavidin-HRP (reference antibody, Example 3)
[5] = biological target: recombinant hCD70 (CD70(h)-muCD8 fusion Protein, Ancell, cat. no. ANC-537-030) (mouse; human); test: cell-based competition ELISA: biotinylated CD70(h)-muCD8 (0.5 ug/ml) binding to CHO-K1.hCD27 cells, Streptavidin-HRP
[6] = biological target: T2, recombinant hCD70 (CD70(h)-muCD8 fusion Protein, Ancell, cat. no. ANC-537-030) (mouse; human, UniProt P01731 28-196; P32970 39-193, biotin (position not stated; detected with Streptavidin-HRP, bound to streptavidin beads)); test: as above
T2 construct: Bought fusion protein; also called CD8-hCD70; biotin-hCD8-hCD70 recombinant protein
T2 sequence (P01731 other isoform, or with tags, fused parts or gaps): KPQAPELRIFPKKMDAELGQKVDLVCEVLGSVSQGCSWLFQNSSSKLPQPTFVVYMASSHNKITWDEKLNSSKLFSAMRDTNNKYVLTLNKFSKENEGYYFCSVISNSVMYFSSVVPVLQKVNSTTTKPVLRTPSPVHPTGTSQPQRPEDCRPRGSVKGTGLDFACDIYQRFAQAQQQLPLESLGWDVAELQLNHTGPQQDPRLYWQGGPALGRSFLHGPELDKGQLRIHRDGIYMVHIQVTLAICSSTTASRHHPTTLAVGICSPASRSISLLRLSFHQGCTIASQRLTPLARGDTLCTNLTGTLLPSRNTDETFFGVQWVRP
Method: Blocking properties of the purified antibodies were studied using a cell-based competition assay. The CHO-K1.CD27 assay works along the following principles: CHO-K1.CD27 cells were seeded (40,000 cells/well) in a 96-well plate and incubated overnight at 37° C. After medium removal, 50 μl recombinant hCD70 (CD70(h)-muCD8 fusion Protein (Ancell, cat. no. ANC-537-030) (0.5 μg/ml) and 50 μl of different dilutions of purified anti-hCD70 antibodies were added.
After 1 hour incubation at room temperature, the wells were washed 3 times with PBST. Next, 100 μl/well Streptavidin-HRP conjugate (BD Pharmingen, cat. no. 554066) (1:5,000) was added and cells were incubated for one hour at 37° C. After 6 final washes with PBST TMB Stabilized Chromagen (Invitrogen, cat. no. SB02) (100 μl/well) was added. The reaction was stopped by the addition of 100 μl 0.5 M H₂SO₄. Absorbencies were read at […] and 620 nm. Reference antibody: anti-hCD70, clone 2F2 (Pelicluser). […] Calculated IC₅₀ values of hCD70 antibodies and the reference 2F2 anti-hCD70 antibody, which represent the concentration at which half of the inhibition is observed, are presented in Table 3.

Molecule | EC50 [1] [pM] | IC50 [2] [pM] | EC50 [3] [pM] | IC50 [4] [pM] | IC50 [5] [pM] | IC50 [6] [pM]
BU69 (antibody) | 17 | 960 | – | – | – | –
2F2 (CLB70/2) (antibody) | 14 | 400 | 130 | < 2600 | – | –
Ki-24 (antibody) | 35 | 1500 | – | – | – | –
B1 | 340 | – | – | – | > 330000 | –
B2 | 260 | – | – | – | – | > 330000
B3 | 170 | – | – | – | – | > 330000
B4 | 300 | – | – | – | – | > 330000
B5 | 150 | – | – | – | – | 76000
B6 | 210 | – | – | – | – | 109000

Source: patent US20160194402A1 (ADURO BIOTECH HOLDINGS EUROPE B V, published 2016)
